Here are results for four substances from paper PMC4157081.

Test in all cases: cryo-EM structure
The target of assay [1] is CUS-3 tailspike protein (gp9 by the name of the P22 homologue) (bacteriophage CUS-3).
Assay [2] concerns the target CUS-3 portal protein (gp1 by the name of the P22 homologue) (bacteriophage CUS-3).
The target in assay [3] is CUS-3 tail needle protein (gp26 by the name of the P22 homologue) (bacteriophage CUS-3).
Assay [4] concerns the target CUS-3 coat protein (CP, major capsid protein; gp5 by the name of the P22 homologue) (bacteriophage CUS-3).

Where “and” joins values, the source holds several entries; their conditions need not be identical. Equal entries are not always repeated.

Broadly, the stoichiometry N is a count of units in the complex or per binding partner.

In turn, “CUS-3 tailspike protein (gp9 by the name of the P22 homologue) (natural protein)” came in with a stoichiometry N in assay [1] of 3. “CUS-3 portal protein (gp1 by the name of the P22 homologue) (natural protein)”: in assay [2], the stoichiometry N was 12. In the case of “CUS-3 tail needle protein (gp26 by the name of the P22 homologue) (natural protein)”, the stoichiometry N in assay [3] stood at 3. Consider “CUS-3 coat protein (CP, major capsid protein; gp5 by the name of the P22 homologue) (natural protein)”, for which the stoichiometry N in assay [4] was 5 and 6.
